Reference: patent US20170107282A1 (CELL MEDICA SWITZERLAND, published 2017)

What was measured:
[1] = target: transmembrane (tm) human TNF alpha, A1-12 variant, on CHO cells (human, UniProt P01375 1-233); assay: cell-based or functional assay
[2] = target: recombinant human (rh) TNF alpha (human, UniProt P01375 77-233, limits assumed); assay: cell-based or functional assay
[3] = target: T1, recombinant human lymphotoxin α2/β1 (R&D systems, cat. No 679-TX-010/CF) (human, UniProt P01374 35-205; Q06643 49-244, limits assumed); assay: direct ELISA, protein coated
T1 construct: Bought heterotrimer; also called human lymphotoxin alpha2/beta1
T1 sequence (looked up) 1: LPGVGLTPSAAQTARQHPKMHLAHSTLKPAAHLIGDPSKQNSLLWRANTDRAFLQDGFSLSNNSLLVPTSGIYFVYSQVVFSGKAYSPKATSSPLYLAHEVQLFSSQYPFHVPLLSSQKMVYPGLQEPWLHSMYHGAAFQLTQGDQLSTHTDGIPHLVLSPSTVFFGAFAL
T1 sequence (looked up) 2: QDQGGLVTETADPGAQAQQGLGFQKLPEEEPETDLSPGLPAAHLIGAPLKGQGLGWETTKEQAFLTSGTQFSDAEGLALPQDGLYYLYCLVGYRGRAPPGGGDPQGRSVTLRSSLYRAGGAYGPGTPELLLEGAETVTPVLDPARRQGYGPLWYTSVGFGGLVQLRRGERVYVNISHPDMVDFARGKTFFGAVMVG
Description: (§1) The cross-reactivity profile of the five selected scFvs to TNF alpha homologs of other species than human beings was assessed using ELISA. The following recombinantly expressed TNF alpha proteins were investigated: rhesus macaque (R&D Systems, USA, cat. no. 1070-RM-025/CF), cynomolgus monkey (Sinobiological, cat.no. 90018 CNAE), canine (Kingfisher Biotech, USA, cat. no. RP0261D-025) and feline (R&D systems, cat. No, 2586FTCF), rabbit (Kingfisher, cat. no RPO429U), rat (Peprotech, cat. no 400-14) murine (Peprotech, cat. no 315-01A), guinea pig (R&D Systems, cat. no 5035-TG-025/CF), porcine (R&D Systems, cat. no 690-PT-025/CF). Briefly, proteins were coated at a concentration of 2 mcg/mL over night at 4° C. on Maxisorp 96-well microplates in PBS pH 7.2. After blocking with 5% non-fat dry milk, increasing concentrations of scFv (0.1, 0.3 and 1.0 mcg/mL) were added to the wells. Successful coating of every protein was separately confirmed with TNF alpha-specific control antibodies. Whereas scFv1 was detected by Protein L-HRP (Sigma-Aldrich, USA, cat. no. P3226), the full-length IgG control antibodies were detected by either Streptavidin-HRP (BD Pharmingen, USA, cat. no. 554060) or other eligible secondary antibodies labelled with HRP. The ELISA was developed with BM Blue POD substrate (Roche Applied Science) and the absorbance was measured at 450 nm. The cross-reactivity of scFvs 1-5 was compared to the scFv DLX2481. […] The scFv DLX2481 recognized only recombinant human TNF alpha. In addition, the cross-reactivity of scFv1 to TNF family members was measured by a direct ELISA with coated recombinant human lymphotoxin α2/β1 (R&D systems, USA, cat. No 679-TX-010/CF), recombinant human lymphotoxin α2/β1 (R&D systems, cat. No 678-LY-010/CF), recombinant human CD40 ligand/TNFSF5 (R&D systems, cat. No. 6420-CL-025/CF) and recombinant human TNF beta/TNFSF1 (R&D systems, cat.

[4] = target: T2, recombinant human lymphotoxin α2/β1 (R&D systems, cat. No 678-LY-010/CF) (human, UniProt P01374 35-205; Q06643 49-244, limits assumed); assay: direct ELISA, protein coated
T2 construct: This second one is probably α1/β2, so copy numbers are left open; also called second lymphotoxin preparation
T2 sequence (looked up) 1: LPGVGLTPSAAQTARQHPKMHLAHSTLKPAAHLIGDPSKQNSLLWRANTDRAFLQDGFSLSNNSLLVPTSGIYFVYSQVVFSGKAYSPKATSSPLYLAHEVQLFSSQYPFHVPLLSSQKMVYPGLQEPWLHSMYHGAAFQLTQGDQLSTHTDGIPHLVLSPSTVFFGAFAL
T2 sequence (looked up) 2: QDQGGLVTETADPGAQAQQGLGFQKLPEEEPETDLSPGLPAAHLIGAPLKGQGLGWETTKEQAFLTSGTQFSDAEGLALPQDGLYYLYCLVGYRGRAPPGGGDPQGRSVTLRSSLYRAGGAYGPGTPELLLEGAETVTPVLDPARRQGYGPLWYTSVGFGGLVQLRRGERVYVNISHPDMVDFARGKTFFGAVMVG
Description: as §1

[5] = target: T3, recombinant human CD40 ligand/TNFSF5 (human, UniProt P29965 108-261, limits assumed); assay: direct ELISA, protein coated
T3 construct: Bought protein; also called R&D systems cat; No. 6420-CL-025/CF
T3 sequence (looked up): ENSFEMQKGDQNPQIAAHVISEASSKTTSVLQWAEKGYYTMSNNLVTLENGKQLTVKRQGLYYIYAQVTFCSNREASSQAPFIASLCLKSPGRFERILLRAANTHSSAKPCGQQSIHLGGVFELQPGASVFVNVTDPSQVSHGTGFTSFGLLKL
Description: as §1

[6] = target: T4, recombinant human TNF beta/TNFSF1 (human, UniProt P01374 35-205, limits assumed); assay: direct ELISA, protein coated
T4 construct: Bought protein; also called R&D systems cat; No. 211-TB-010/CF
T4 sequence (looked up): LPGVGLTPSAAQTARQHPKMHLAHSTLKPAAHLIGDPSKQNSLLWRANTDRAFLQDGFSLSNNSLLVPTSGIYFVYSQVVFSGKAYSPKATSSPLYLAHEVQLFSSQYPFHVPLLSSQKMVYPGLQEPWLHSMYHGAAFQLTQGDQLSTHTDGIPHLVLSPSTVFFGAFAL
Description: as §1

rhesus macaque TNF alpha = target: T5, rhesus macaque TNF alpha (rhesus macaque, UniProt P48094 77-233); assay: ELISA, TNF alpha protein coated, Protein L-HRP detection
T5 construct: Bought protein; also called R&D Systems cat. no; 1070-RM-025/CF
Description: as §1

[7] = target: T6, cynomolgus monkey TNF alpha (cynomolgus monkey, UniProt P79337 77-233); assay: as above
T6 construct: Bought protein; also called Sinobiological cat. no; 90018 CNAE
Description: as §1

canine TNF alpha = target: T7, canine TNF alpha (canine, UniProt P51742 77-233); assay: as above
T7 construct: Bought protein; also called dog TNF alpha; Kingfisher Biotech cat. no; RP0261D-025
Description: as §1

feline TNF alpha = target: T8, feline TNF alpha (feline, UniProt P19101 77-233); assay: as above
T8 construct: Bought protein; also called R&D systems cat; No 2586FTCF
Description: as §1

Sequence of recombinant human (rh) TNF alpha (P01375 77-233 limits assumed): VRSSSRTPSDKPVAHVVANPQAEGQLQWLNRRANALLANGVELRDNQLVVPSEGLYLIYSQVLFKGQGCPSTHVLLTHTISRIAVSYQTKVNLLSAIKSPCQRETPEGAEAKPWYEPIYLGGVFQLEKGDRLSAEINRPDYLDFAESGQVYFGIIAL
Sequence of transmembrane (tm) human TNF alpha, A1-12 variant, on CHO cells (P01375 other isoform, or with tags, fused parts or gaps mutant limits assumed): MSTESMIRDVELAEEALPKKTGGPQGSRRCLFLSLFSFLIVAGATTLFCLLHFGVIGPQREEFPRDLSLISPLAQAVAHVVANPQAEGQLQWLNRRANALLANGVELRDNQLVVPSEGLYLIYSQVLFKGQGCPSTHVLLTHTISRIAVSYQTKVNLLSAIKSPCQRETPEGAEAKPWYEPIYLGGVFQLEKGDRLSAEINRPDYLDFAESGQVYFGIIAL
T5 sequence (P48094 77-233 limits assumed): as the sequence (P01375 77-233 limits assumed) above, with R44T, T72N, R138L counted along it
T8 sequence (P19101 77-233 limits assumed): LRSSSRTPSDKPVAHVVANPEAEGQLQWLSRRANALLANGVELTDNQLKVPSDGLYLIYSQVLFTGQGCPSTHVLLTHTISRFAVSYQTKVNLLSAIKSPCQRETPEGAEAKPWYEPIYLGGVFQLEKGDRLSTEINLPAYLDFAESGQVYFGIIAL
T7 sequence (P51742 77-233 limits assumed): as the sequence (P19101 77-233 limits assumed) above, with L1V, R2K, K49I, T65K, A109T, T134A, A140N counted along it
T6 sequence (P79337 77-233 limits assumed): as the sequence (P01375 77-233 limits assumed) above, with L37V, R44T, T72N, R138L counted along it

B1: scFv1 (scFv)
scFv: EIVMTQSPSTLSASVGDRVIITCQASQSISSYLAWYQQKPGKAPKLLIYWASTLASGVPSRFSGSGSGTEFTLTISSLQPDDFATYYCQSYYYTSNNSDGFWAFGQGTKLTVLGGGGGSGGGGSGGGGSGGGGSEVQLVESGGGLVQPGGSLRLSCKASGIDFSNSGITWVRQAPGKGLEWVGYIYPGFGIRNYANSVRGRFTISRDTSKNTVYLQMNSLRAEDTAVYYCARDPIYASSSGYADIWGQGTLVTVSS
In the case of B1, the “IC50, inhibition of tmTNF alpha activity on HEK-Dual TNF alpha-sensitive reporter cells (luciferase)” value [1] is reported as 50 nM, the “IC50, inhibition of rhTNF alpha (1.4 pM) cytotoxicity on PK-15 cells” value [2] is reported as 30 pM and the binding result [3] is reported as “no binding (tested: 40 nM)”. B1: no binding (tested: 40 nM) [4]; no binding (tested: 40 nM) [5]; no binding (tested: 40 nM) [6]. B1: binds (rhesus macaque TNF alpha); binds [7]; binds (canine TNF alpha). B1: binds (feline TNF alpha).

B2: positive control scFv DLX105 (scFv)
scFv: MADIVMTQSPSSLSASVGDRVTLTCTASQSVSNDVVWYQQRPGKAPKLLIYSAFNRYTGVPSRFSGRGYGTDFTLTISSLQPEDVAVYYCQQDYNSPRTFGQGTKLEVKRGGGGSGGGGSGGGGSSGGGSQVQLVQSGAEVKKPGASVKVSCTASGYTFTHYGMNWVRQAPGKGLEWMGWINTYTGEPTYADKFKDRFTFSLETSASTVYMELTSLTSDDTAVYYCARERGDAMDYWGQGTLVTVSS
For B2, the “IC50, inhibition of tmTNF alpha activity on HEK-Dual TNF alpha-sensitive reporter cells (luciferase)” value [1] was 32 nM and the “IC50, inhibition of rhTNF alpha (1.4 pM) cytotoxicity on PK-15 cells” value [2] was 260 pM.
